Assay results as given in patent US20160237160A1 (Bayer, published 2016).

How the values were obtained:
[1] = target: TPP-1988 (hTNFRSF12Aaa28-80-M50A-hIgG1-Fc) (human); assay: ELISA, TWEAKR-Fc coated 62 ng/ml, biotin-IgG titrated; + means IC50 1 to 150 pM;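 note: biotinylated IgG binding to immobilized TWEAKR-Fc muteins, detected with Streptavidin-HRP and Amplex Red, IC50 derived from fitted dose-response curves of twofold serial dilutions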
[2] = target: T1, TPP-2614 (TweakR-ECD-34-68-hIgGFc-His-D47A) (human); assay: ELISA, PDL-192(TPP-1104) coated at 1 µg/ml, eight-fold diluted HEK293 supernatant with the TWEAKR(34-68)-Fc mutein, anti-HIS-HRP, Amplex Red
T1 construct: also called D47A TWEAKR mutein

[3] = target: T2, TPP-599 (HUMAN-TNFRSF12Aaa28-80-hIgG1-Fc) (human); assay: ELISA, 2.5 nM biotinylated TWEAKR-Fc coated, soluble Fab, anti-c-Myc detection
T2 construct: dimeric; also called human TWEAKR Fc; TWEAKR-Fc

B1: PDL-192(TPP-1104) (antibody, human IgG1, kappa, V domains shown)
VH: QVELVESGGGLVQPGGSLRLSCAASGFTFSSYWMSWVRQAPGKGLEWVAEIRLKSDNYATHYAESVKGRFTISRDDSKNSLYLQMNSLRAEDTAVYYCTGYYADAMDYWGQGTLVTVSS
VL: DIQMTQSPSSLSASVGDRVTITCRASQSVSTSSYSYMHWYQQKPGKAPKLLIKYASNLESGVPSRFSGSGSGTDFTLTISSLQPEDFATYYCQHSWEIPYTFGGGTKVEIKR
notes: Human IgG1; variable domains from WO2009/020933 with constant region added
Question: Does B1 bind [1]?
Answer: Result: binds

Question: Does B1 bind [2]?
Answer: Result: binds

B2: TPP-883 Fab variant G97F of CDR-L3 (Fab, V domains shown)
VH: EVQLLESGGGLVQPGGSLRLSCAASGFTFSPYPMMWVRQAPGKGLEWVSYISPSGGKTHYADSVKGRFTISRDNSKNTLYLQMNSLRAEDTAVYYCARGGDGYFDYFDYWGQGTLVTVSS
VL: DIQMTQSPATLSASVGDRVTITCRASQSISSYLNWYQQKPGKAPKLLIYAASSLQSGVPSRFSGSGSGTDFTLTISSLQPEDFATYYCQQSYSSPFITFGPGTKVEIK
Question: Does B2 bind [3]?
Answer: Result: binds

B3: TPP-883 Fab variant S94T of CDR-L3 (Fab, V domains shown)
VH: EVQLLESGGGLVQPGGSLRLSCAASGFTFSPYPMMWVRQAPGKGLEWVSYISPSGGKTHYADSVKGRFTISRDNSKNTLYLQMNSLRAEDTAVYYCARGGDGYFDYFDYWGQGTLVTVSS
VL: DIQMTQSPATLSASVGDRVTITCRASQSISSYLNWYQQKPGKAPKLLIYAASSLQSGVPSRFSGSGSGTDFTLTISSLQPEDFATYYCQQSYTSPGITFGPGTKVEIK
Question: Does B3 bind [3]?
Answer: Result: binds
